Consider five molecules from patent publication US8067220B2, “Alternative crystal form of monoacylglycerol lipase (MGLL)” (Janssen Pharmaceutica N.V., priority 2008, dated 2011).

For data set [1], the system named is MGLL. Kind of data set: Hydrolysis of coumarin arachidonate (C-A), apparent kcat/KM at [S]<<KM. It is filed as biochemical, human. The settings on record: estimated; limited by solubility of C-A. From the text:
(§1) A small fluorescent substrate, 4-methyl coumarin butyrate (4MC-B) was used to compare the activity of the engineered mutants to the activity of wt-MGLL (hMGLL 1-303) (SEQ ID NO: 3). The catalytic efficiency (kcat/KM) for the hydrolysis of the 4MC-B was similar for wt-MGLL (hMGLL 1-303) (SEQ ID NO: 3) and all MGLL mutants tested (Table 2). A larger more aliphatic fluorescent substrate, Coumarin Arachidonate (C-A), structurally more closely related to the MGLL natural substrate, 2-AG, was used to compare the activity of wt-MGLL (hMGLL 1-303) (SEQ ID NO: 3) to TEV protease cleaved mut-MGLL (hMGLL 1-303 L169S, L176S) (SEQ ID NO: 5).
(§2) The Michaelis-Menten parameters for the hydrolysis of 4-methylcoumarin butyrate (4MC-B) and coumarin arachidonate (C-A) substrate were determined using 4-5 nM of MGLL in 20 mM Pipes pH 7 and 150 mM NaCl at 37° C. The change in fluorescence due to substrate hydrolysis was monitored using excitation/emission wavelengths of 335/440 in a Safire II instrument from Tecan. The hyperbolic rates versus substrate concentration curves for the hydrolysis of 4MC-B were fit to the Michaelis-Menten equation using Excel.
The apparent kcat/Km ratio for the hydrolysis of C-A was determined at [S]<<KM. […] The kcat/KM values reported are the average from independent values determined from five substrate concentrations ranging from 700 to 40 nM.

The test system of data set [2] is MGLL. Kind of data set: Michaelis-Menten kinetics, hydrolysis of 4-methylcoumarin butyrate (4MC-B). It is filed as biochemical, human. To be noted: substrate 4MC-B; 4-5 nM MGLL, 20 mM Pipes pH 7, 150 mM NaCl, 37° C.; average of 2 or 4 assays.
From the text: as §1, §2

Data set [3] can be described thus: Circular dichroism (CD) structural analysis. The format is physicochemical. The settings on record: 5 μM protein, 10 mM cacodylic acid pH 7, 140 mM NaCl, 200 to 260 nm. As to the method: Circular dichroism experiments were performed on a Circular Dichroism Spectrometer Model 202 from Aviv Instruments Inc. The CD scans of wt-MGLL (hMGLL 1-303) (SEQ ID NO: 3) and TEV protease cleaved mut-MGLL (hMGLL 1-303 L169S, L176S) (SEQ ID NO: 5) (5 μM protein in 10 mM cacodylic acid pH 7 and 140 mM NaCl) were measured from 200 to 260 nm. Temperature melts were monitored at 210 nm.
For orientation: Circular dichroism is the unequal absorption of left and right circularly polarised light.

The subject of data set [4] is MGLL. Put plainly: Thermofluor thermal stability assay. It is filed as physicochemical, human. The settings on record: Thermofluor, 1,8-ANS; for midpoint of the melting transition (Tm): 0.05 mg/ml protein, Pipes pH 7.
From the text: (§3) Thermofluor® assays detect small changes in the intrinsic melting temperature of proteins based on binding of ligands. Compounds that interact preferentially with the native form of the protein will increase the Tm, the temperature at which half of the protein is unfolded (Pantoliano et al. 2001). The technique monitors changes in the fluorescent intensity of dyes such as 1-anilinonaphthalene-8-sulfonic acid (1,8-ANS). The fluorescent dyes are quenched in aqueous environments but increase in fluorescence on binding to the hydrophobic core of denatured proteins.
as §3, with “The Thermofluor®” for “Thermofluor®”, “assay is a powerful tool to screen for small molecule inhibitors interacting with a protein's active site or allosteric site. The assay detects” for “assays detect”
Thermofluor® assays were conducted to characterize wt-MGLL (hMGLL 1-303) (SEQ ID NO: 3) and mut-MGLL (hMGLL 1-303 L169S, L176S) and evaluate if the MGLL mutants could be used for high-throughput screening using Thermofluor®. Three microliters of protein at a concentration of 0.05 mg/ml in 50 mM Pipes pH 7, 200 mM NaCl, 100 μM 1,8-ANS, and 0.001% Tween was added to pre-dispensed compound plates. Wells were overlaid with silicone oil (1 μL, Fluka, type DC 200) to prevent evaporation. Final compound concentrations varied from 150 to 0.15 μM. Assay plates were heated at a rate of 1° C./min for all experiments over a temperature range sufficient to measure protein unfolding. Fluorescence was measured by continuous illumination with UV light (Hamamatsu LC6) supplied via fiber optic and filtered through a custom band-pass filter (380-400 nm; >6 OD cutoff). Fluorescence emission was detected by measuring light intensity using a CCD camera (Sensys, Roper Scientific) filtered to detect emission at 500±25 nm, resulting in simultaneous and independent readings of all 384 wells. One or more images were collected at each temperature, and the sum of the pixel intensity in a given area of the assay plate was recorded vs temperature, and fit to standard equations to yield the Tm.

A short description of data set [5]: Size exclusion chromatography of protein purified in the absence of detergent. It is filed as physicochemical. As to the method:
A pilot purification of wt-MGLL (hMGLL 1-303) (SEQ ID NO: 3), performed in the complete absence of detergent, generated no protein (data not shown). A second purification of wt-MGLL (hMGLL 1-303) (SEQ ID NO: 3) was done with detergent in the lysis buffer only. Frozen cell pellets for wt-MGLL (hMGLL 1-303) (SEQ ID NO: 3) were thawed, resuspended, and lysed in Bugbuster® lysis buffer for 1 hour at 4° C. Bugbuster® lysis buffer is a proprietary lysis buffer from […] that contains detergent. The lysate was clarified by centrifugation at 40,000×g for 1 hr. No detergent was added at this point or during the rest of the purification. From this point forward, the purification protocol and buffers were the same as described below for mut-MGLL. An average of 2.2 mg of wt-MGLL (hMGLL 1-303) (SEQ ID NO: 3) per liter of cell culture was obtained.
Mutant MGLL (mut-MGLL) constructs were purified in the absence of detergent. […] Fractions were analysed by SDS-PAGE. […] Purification yields were determined by Bradford assay using the protein assay kit from BioRad according to manufacturer's instruction with BSA as a standard (Bradford 1976).
(In general: In gel filtration, larger molecules generally elute earlier.)

As for `CCCCC/C=C/C/C=C\C/C=C/C/C=C/CCCC(=O)Oc1ccc2ccc(=O)oc2c1` [C-A, Coumarin Arachidonate], the Michaelis-Menten constant (Km) – broadly, the substrate concentration at which the rate is half of its maximum – in data set [1] is > 30 µM.

B1: mut-MGLL 1-303, L169S, L176S, K226A: human MGLL 1-303 with L169S, L176S and surface mutation K226A (protein)
chain: MPEESSPRRTPQSIPYQDLPHLVNADGQYLFCRYWKPTGTPKALIFVSHGAGEHSGRYEELARMLMGLDLLVFAHDHVGHGQSEGERMVVSDFHVFVRDVLQHVDSMQKDYPGLPVFLLGHSMGGAIAILTAAERPGHFAGMVLISPLVLANPESATTFKVLAAKVLNSVLPNLSSGPIDSSVLSRNKTEVDIYNSDPLICRAGLKVCFGIQLLNAVSRVERALPALTVPFLLLQGSADRLCDSKGAYLLMELAKSQDKTLKIYEGAYHVLHKELPEVTNSVFHEINMWVSQRTATAGTASPP
As to B1, in data set [2], the Kcat is 0.633 s⁻¹ and the Km came to 110 µM.

B2: mut-MGLL 1-303, L169S, L176S, K36A, K226A: human MGLL 1-303 with L169S, L176S and surface mutations K36A, K226A (protein)
chain: MPEESSPRRTPQSIPYQDLPHLVNADGQYLFCRYWAPTGTPKALIFVSHGAGEHSGRYEELARMLMGLDLLVFAHDHVGHGQSEGERMVVSDFHVFVRDVLQHVDSMQKDYPGLPVFLLGHSMGGAIAILTAAERPGHFAGMVLISPLVLANPESATTFKVLAAKVLNSVLPNLSSGPIDSSVLSRNKTEVDIYNSDPLICRAGLKVCFGIQLLNAVSRVERALPALTVPFLLLQGSADRLCDSKGAYLLMELAKSQDKTLKIYEGAYHVLHKELPEVTNSVFHEINMWVSQRTATAGTASPP
With B2, in data set [2], the Kcat came to 0.5 s⁻¹ and the Km stood at 123 µM.

B3: mut-MGLL. 1-303, L169S, L176S: human MGLL 1-303 with cap-domain mutations L169S, L176S (protein)
chain: GMPEESSPRRTPQSIPYQDLPHLVNADGQYLFCRYWKPTGTPKALIFVSHGAGEHSGRYEELARMLMGLDLLVFAHDHVGHGQSEGERMVVSDFHVFVRDVLQHVDSMQKDYPGLPVFLLGHSMGGAIAILTAAERPGHFAGMVLISPLVLANPESATTFKVLAAKVLNSVLPNLSSGPIDSSVLSRNKTEVDIYNSDPLICRAGLKVCFGIQLLNAVSRVERALPKLTVPFLLLQGSADRLCDSKGAYLLMELAKSQDKTLKIYEGAYHVLHKELPEVTNSVFHEINMWVSQRTATAGTASPP
Take B3: the “CD scan compared with wt-MGLL purified in the presence of detergent” value in data set [3] is on record as “similar”. For the same molecule, in data set [4], the “quality of Thermofluor melting transition” value is on record as “strong transition” and the “midpoint of the melting transition (Tm)” value came out at 56.7 °C. In addition, the “monomer by size exclusion” value in data set [5] came to 90%. In addition, in data set [2], the Kcat amounted to 0.8 s⁻¹ and the Michaelis constant (Km) turned out to be 136 µM.

B4: wt-MGLL.1-303: wild-type human MGLL isoform 2, amino acids 1-303, with N-terminal His tag and TEV site (protein)
chain: MVDHHHHHHENLYFQGMPEESSPRRTPQSIPYQDLPHLVNADGQYLFCRYWKPTGTPKALIFVSHGAGEHSGRYEELARMLMGLDLLVFAHDHVGHGQSEGERMVVSDFHVFVRDVLQHVDSMQKDYPGLPVFLLGHSMGGAIAILTAAERPGHFAGMVLISPLVLANPESATTFKVLAAKVLNLVLPNLSLGPIDSSVLSRNKTEVDIYNSDPLICRAGLKVCFGIQLLNAVSRVERALPKLTVPFLLLQGSADRLCDSKGAYLLMELAKSQDKTLKIYEGAYHVLHKELPEVTNSVFHEINMWVSQRTATAGTASPP
modifications: N-terminal His tag and TEV site
notes: wild-type human MGLL isoform 2, amino acids 1-303, with N-terminal His tag and TEV site
Take B4: in data set [4], the “quality of Thermofluor melting transition” value is “very poor transition” and the “midpoint of the melting transition (Tm)” value turned out to be 58 °C. The “aggregation by size exclusion” value in data set [5] is 100%. Besides, in data set [2], the Kcat was 1.13 s⁻¹ and the Km was 162 µM.
